Two substances from patent publication US20170101472A1 can be followed below.

The target of experiment [1] is HEK293-hLAG3 and HEK293-mfLAG3 cells. The experiment in a line: cell binding assay of Table 12, LAG3-expressing HEK293 cells against parental HEK293 cells.
In experiment [2] the target is cynomolgus LAG3 on activated CD4+ and CD8+ cynomolgus T cells (cynomolgus). The experiment can be described thus: FACS, stimulated cynomolgus CD4+ T cells, donor 1. For orientation: In flow cytometry, cells or beads pass a laser one at a time.

“H4H isotype control and the H4sH isotype control”: the ratio of binding above the HEK293 parental cells in experiment [1] is 0.7 to 1.1 fold. For the substance hIgG4 isotype control (antibody), the Ratio of MFI (11 nM/0 nM) in experiment [2] came to 1.
